# B1: AP2 (ssRNA)
# RNA: GGGAGCACGAUUCCAUGCAAUUGUCGAGUUGUUAGCAGCAGCUUGCAUAUUGAGUCGUGGCGAAUUGGGUGGGGAAAGUCCUAAAAAGAGGGCCACCACAGAGGUUUGUACCCAUACUACAAGCUUCUGGACUCGGU
# B2: AP4 (ssRNA)
# RNA: GGGAGCACGAUUCCAUGAUUCUCGUAUCAAGGAAGGGUUAUGAGAUUUAGGUAAACGUGGCGAAUUGGGUGGGGAAAGUCCUAAAAAGAGGGCCACCACAGAGGCUUGUAAUCGAUGUUACUAUAGAGGGACACGACUACAAGCUUCUGGACUCGGU
# B3: AP6 (ssRNA)
# RNA: GGGAGCACGAUUCCAUUGGAUGCCACCGCGACUACGGUUAGUAGGCAUUCUGAGUCGUGGCGAAUUGGGUGGGGAAAGUCCUGAAAAGAGGGCCACCACAGAGGCUCAAACUGGACGUUAAUGACGUUUCGGUUCAGUACAAGCUUCUGGACUCGGU
# Target: GFP (wild-type green fluorescent protein) (Aequorea victoria, UniProt P42212 P42212:1-238)
# Experiment: filter; higher affinity than G16
# Settings: tags: His-tag (His-tagged GFP used on Ni beads in selection)
row,Binder,binding result
1,B1,binds
2,B2,binds
3,B3,binds

# Reference: US8445655, “Functional nucleic acid ligands to fluorescent proteins” (Cornell Research Foundation, Inc.)
